The assay addresses IQ∼Sec7PH fusion protein of IQSEC3 (not stated (human or rat cDNA cloned)) (UniProt Q9UPP2). The experiment in a line: ITC.

One may read the Kd as the free concentration of one partner at which half of the binding sites on the other are occupied at equilibrium, for simple one-to-one binding. A higher Kd goes with a looser complex.

Chain of UniProt Q9UPP2 (Q9UPP2 whole entry, looked up, the tested form may be a part): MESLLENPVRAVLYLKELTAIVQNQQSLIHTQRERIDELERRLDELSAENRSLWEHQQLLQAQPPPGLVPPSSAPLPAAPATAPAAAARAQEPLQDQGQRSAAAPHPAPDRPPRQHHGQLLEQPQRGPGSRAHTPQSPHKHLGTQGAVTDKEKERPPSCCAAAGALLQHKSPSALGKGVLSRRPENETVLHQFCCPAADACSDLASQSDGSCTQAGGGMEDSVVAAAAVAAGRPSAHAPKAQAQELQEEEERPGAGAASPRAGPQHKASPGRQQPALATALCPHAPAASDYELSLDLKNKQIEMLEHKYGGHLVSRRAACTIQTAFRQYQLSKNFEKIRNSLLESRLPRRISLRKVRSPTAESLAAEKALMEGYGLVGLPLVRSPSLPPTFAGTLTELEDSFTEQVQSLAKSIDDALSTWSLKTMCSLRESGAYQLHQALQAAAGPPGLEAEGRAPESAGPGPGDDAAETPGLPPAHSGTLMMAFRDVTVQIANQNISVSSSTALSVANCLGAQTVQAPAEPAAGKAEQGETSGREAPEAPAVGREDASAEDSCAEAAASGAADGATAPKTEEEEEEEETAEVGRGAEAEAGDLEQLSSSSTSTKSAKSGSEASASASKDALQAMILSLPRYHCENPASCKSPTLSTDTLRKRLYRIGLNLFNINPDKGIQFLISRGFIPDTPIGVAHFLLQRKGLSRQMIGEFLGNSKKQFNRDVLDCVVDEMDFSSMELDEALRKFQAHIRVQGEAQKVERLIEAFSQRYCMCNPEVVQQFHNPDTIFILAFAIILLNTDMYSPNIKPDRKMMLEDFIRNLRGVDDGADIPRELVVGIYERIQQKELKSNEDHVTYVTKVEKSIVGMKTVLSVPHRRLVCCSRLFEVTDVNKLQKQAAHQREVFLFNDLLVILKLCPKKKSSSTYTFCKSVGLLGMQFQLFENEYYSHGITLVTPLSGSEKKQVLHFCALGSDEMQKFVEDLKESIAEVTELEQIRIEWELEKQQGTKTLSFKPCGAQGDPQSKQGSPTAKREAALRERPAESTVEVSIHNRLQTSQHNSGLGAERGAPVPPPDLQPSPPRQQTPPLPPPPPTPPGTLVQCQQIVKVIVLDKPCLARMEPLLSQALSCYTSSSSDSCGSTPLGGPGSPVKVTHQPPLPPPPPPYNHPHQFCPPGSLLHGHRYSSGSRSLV

The substance “calmodulin (CaM) (from UniProt P0DP25 2-149) (natural protein)” showed a dissociation constant (Kd) of 1 nM.

(Values after PMC10548395.)
